Values quoted from earlier work, collected in PMC3090270 (Structure (London, England : 1993), 2010).

B1: Pap7: AKAP shown to bind RI subunits (protein, UniProt Q9H3P7 1-528, looked up)
Golgi resident protein GCP60: MAAVLNAERLEVSVDGLTLSPDPEERPGAEGAPLLPPPLPPPSPPGSGRGPGASGEQPEPGEAAAGGAAEEARRLEQRWGFGLEELYGLALRFFKEKDGKAFHPTYEEKLKLVALHKQVLMGPYNPDTCPEVGFFDVLGNDRRREWAALGNMSKEDAMVEFVKLLNRCCHLFSTYVASHKIEKEEQEKKRKEEEERRRREEEERERLQKEEEKRRREEEERLRREEEERRRIEEERLRLEQQKQQIMAALNSQTAVQFQQYAAQQYPGNYEQQQILIRQLQEQHYQQYMQQLYQVQLAQQQAALQKQQEVVVAGSSLPTSSKVNATVPSNMMSVNGQAKTHTDSSEKELEPEAAEEALENGPKESLPVIAAPSMWTRPQIKDFKEKIQQDADSVITVGRGEVVTVRVPTHEEGSYLFWEFATDNYDIGFGVYFEWTDSPNTAVSVHVSESSDDDEEEEENIGCEEKAKKNANKPLLDEIVPVYRRDCHEEVYAGSHQYPGRGVYLLKFDNSYSLWRSKSVYYRVYYTR
B2: Merlin: AKAP shown to bind RI subunits (protein, UniProt P35240 1-595, looked up)
Merlin: MAGAIASRMSFSSLKRKQPKTFTVRIVTMDAEMEFNCEMKWKGKDLFDLVCRTLGLRETWFFGLQYTIKDTVAWLKMDKKVLDHDVSKEEPVTFHFLAKFYPENAEEELVQEITQHLFFLQVKKQILDEKIYCPPEASVLLASYAVQAKYGDYDPSVHKRGFLAQEELLPKRVINLYQMTPEMWEERITAWYAEHRGRARDEAEMEYLKIAQDLEMYGVNYFAIRNKKGTELLLGVDALGLHIYDPENRLTPKISFPWNEIRNISYSDKEFTIKPLDKKIDVFKFNSSKLRVNKLILQLCIGNHDLFMRRRKADSLEVQQMKAQAREEKARKQMERQRLAREKQMREEAERTRDELERRLLQMKEEATMANEALMRSEETADLLAEKAQITEEEAKLLAQKAAEAEQEMQRIKATAIRTEEEKRLMEQKVLEAEVLALKMAEESERRAKEADQLKQDLQEAREAERRAKQKLLEIATKPTYPPMNPIPAPLPPDIPSFNLIGDSLSFDFKDTDMKRLSMEIEKEKVEYMEKSKHLQEQLNELKTEIEALKLKERETALDILHNENSDRGGSSKHNTIKKLTLQSAKSRVAFFEEL
B3: D-AKAP1: dual-specific AKAP (protein, UniProt Q92667 30-903, looked up)
A-kinase anchor protein 1, …: KGHVSSHDEQQVEAGAVQLRADPAIKEPLPVEDVCPKVVSTPPSVTEPPEKELSTVSKLPAEPPALLQTHPPCRRSESSGILPNTTDMRLRPGTRRDDSTKLELALTGGEAKSIPLECPLSSPKGVLFSSKSAEVCKQDSPFSRVPRKVQPGYPVVPAEKRSSGERARETGGAEGTGDAVLGEKVLEEALLSREHVLELENSKGPSLASLEGEEDKGKSSSSQVVGPVQEEEYVAEKLPSRFIESAHTELAKDDAAPAPPVADAKAQDRGVEGELGNEESLDRNEEGLDRNEEGLDRNEESLDRNEEGLDRNEEIKRAAFQIISQVISEATEQVLATTVGKVAGRVCQASQLQGQKEESCVPVHQKTVLGPDTAEPATAEAAVAPPDAGLPLPGLPAEGSPPPKTYVSCLKSLLSSPTKDSKPNISAHHISLASCLALTTPSEELPDRAGILVEDATCVTCMSDSSQSVPLVASPGHCSDSFSTSGLEDSCTETSSSPRDKAITPPLPESTVPFSNGVLKGELSDLGAEDGWTMDAEADHSGGSDRNSMDSVDSCCSLKKTESFQNAQAGSNPKKVDLIIWEIEVPKHLVGRLIGKQGRYVSFLKQTSGAKIYISTLPYTQSVQICHIEGSQHHVDKALNLIGKKFKELNLTNIYAPPLPSLALPSLPMTSWLMLPDGITVEVIVVNQVNAGHLFVQQHTHPTFHALRSLDQQMYLCYSQPGIPTLPTPVEITVICAAPGADGAWWRAQVVASYEETNEVEIRYVDYGGYKRVKVDVLRQIRSDFVTLPFQGAEVLLDSVMPLSDDDQFSPEADAAMSEMTGNTALLAQVTSYSPTGLPLIQLWSVVGDEVVLINRSLVERGLAQWVDSYYTSL

Test system: RI subunits
Details: ref Huang et al., 1997b (D-AKAP1), 1997a (D-AKAP2), Reinton et al., 2000 (AKAP220), Gronholm et al., 2003 (Merlin), Li et al., 2001 (Pap7)

Molecule | binding to RI subunits (dual-specific)
B1 | bind RI subunits
B2 | bind RI subunits
B3 | bind RI subunits
